Earlier results in paper PMC3597628.
Where two headings read alike, the source gives them in different places.

What was measured:
[1] = target: (Pro)renin receptor (Homo sapiens) (UniProt O75787)
[2] = target: (Pro)renin receptor (Homo sapiens) (UniProt O75787); remark: listed apart in the source

Chain of UniProt O75787 (O75787 17-302): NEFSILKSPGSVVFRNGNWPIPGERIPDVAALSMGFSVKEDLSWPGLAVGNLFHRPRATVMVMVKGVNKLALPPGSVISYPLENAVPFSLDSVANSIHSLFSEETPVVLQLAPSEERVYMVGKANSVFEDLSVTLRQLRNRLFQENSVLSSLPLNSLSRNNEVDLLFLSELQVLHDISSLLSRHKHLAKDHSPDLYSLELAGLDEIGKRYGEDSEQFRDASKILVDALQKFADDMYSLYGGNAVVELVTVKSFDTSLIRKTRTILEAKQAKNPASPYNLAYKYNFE

Prorenin (from UniProt P00797)
Kd [1]: 1.2 nM

Prorenin (from UniProt P08424)
Kd [2]: 8.3 nM
